# B1: Plasmodium berghei phosphoglycolate phosphatase (PbPGP) (enzyme, P. berghei, UniProt A0A509AU59 1-322, looked up)
# chain: MSLIVSEASQNNYFKDSENSYNSFMKEWKIEKRVNVKDLYQNFEVFFFDCDGVLWRGDTVINGAIEVINKLISDNKKVYFITNNSTKSRDTLLGKFHKLGFTCVKKEHIICTSYAIAKYFHSKEEYKSRKKKIYVIGEKGICDELDALNLVWLGSYKDNDKKVIIQDEGEIQIDNNIGAVVVAIDFNINYYKIQYAQLCINGLDAEFIVSNKDPLANFTSNQQWAGTGSIVASIEQVSFKKPKVLGKPNLFMIESVLKSLNIDLSKVVMIGDRLDTDIFFAQNCKIKSILVSTGVTDANVFLNHNNLNIKPDYFMKSILEFL
# Target: the molecule itself
# Experiment: SEC
protein,measurement,value
B1,stoichiometry N,2

# — article doi:10.1101/495473 (bioRxiv, 2018)
